Literature values, collected in article PMC3991732.

Molecular target: ubiquitin (Homo sapiens) (UniProt P0CG48)
Experiment: NMR

Sequence of CD2AP SH3-C (Q9Y5K6 269-330): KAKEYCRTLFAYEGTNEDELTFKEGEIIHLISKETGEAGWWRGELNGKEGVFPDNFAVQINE

Kd: 132 µM
Substance: CD2AP SH3-C (from UniProt Q9Y5K6)
